Measurements taken from the nanobody polyreactivity screen of Harvey et al. (2022).

test: yeast display, Sf9 membrane polyspecificity reagent, FACS + sequencing; frameworks hold sequencing errors
How it was run: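 Galactose-induced (36–48 hours) yeast carrying a synthetic nanobody display library were exposed to 10% biotinylated, detergent-solubilized Sf9 membrane reagent at 4 °C for 1 hour. FACS followed streptavidin microbead enrichment, using low and high (top ~1%) gates for expression (anti-HA) and reagent binding (streptavidin). Colony PCR, MiSeq 2 × 250 sequencing and CDR-length filtering followed. Labels for polyreactivity reflect the gate of origin.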

| Sequence | polyreactivity (PSR sort gate) |
| --- | --- |
| QVQLLESGGGLVQAGRSLRLSCAASGSIFRSYAMGWSRQAPGKERELVAAISRRGGSTYYADSVKGRFTISRDNAKNTVYLQMNSLKPEDTAVYYCAADRTGPYDYWGQGTQVTVSS | high polyreactivity |
| QVQLVESGGGLVQAGGILRLSCAASGRIYEIYAMGWYRQAPGKDRELVAAISWRGVSTYYADSVKGPFTISRDNAKNNVYLQMNSLKPEDTAVYYCNKDVDYFWYVEYDYWGQGTQVTVSS | low polyreactivity |
| QVQLVESGGGLVQAGGSLRLSCAPSGSIFYSYAMVWYRQAPGKERELVASISRGGTTYYADSVKGRFTISRDNAKNTVYLQMNSLKPEDTAVYYCAAELSEWTNGFDYWGQGTQVTVSS | high polyreactivity |
| QVQLVESGGGLVQAGGILRVSCAASGRIFRFYAMGWYRQAPGKERELVADISRRGGSTYYADSVKGRFTISRDNAKNTVYLQMNSLKPEDTAVYYCNARWYRTGSTYHDDYWGQGTQVTVSS | high polyreactivity |
| QVQLVESGGGLVQAGGSLRLSCAASGFTFYRNAMGWYRQAPGKERELVAAISSRGGSTYYADSVKGRFTISRDNAKNTVYLQLNSMKPEDNAVYYCAAYGNYNEYDYGGQGTQVTVSS | high polyreactivity |
| QVQLVESGGGLVQAGGSLRLSCAASGIIFNTYAMGWYRPAPGKERELVAGIDYSGGGTSYADSVKGRFTISRDNAKNTVYLQMNSLKPEDTAVYYCAADAYSGAYFTYLGEIYDYWGQGTQVTVSS | low polyreactivity |
| QVQLVESGGGLVQAGGSLRLSCAPSGRTYLTYVMGWYRQAPGKERELVAAITRGGRTNYADSVKGRFTISRDNAKNTVYLQMNSLQPEDTAVYYCARDIHSVHNNRDKHDYDDWGQGTLVTVSS | low polyreactivity |
| QVQLVESGGGLVQAGGSLRLSCAASGRTFYDNTMGWYRQAPGKERELVAAISRGGSTYADSVEGRFTISRDNAKNTVYLQMNSLKPEDTAVYYCNKRSITTEYGYWGQGTQVTVSS | low polyreactivity |
| QVQLVESGGGLVQAGGSLRLSCAASGYLRVNAMGWYRQAPGTERELVAAITGNGGRTYYADSVKGRFTISRDNAKNTVYLQMNSLKPEDTAVYYCNIAGSSRSWFGSYYWGQGTQVTVSS | high polyreactivity |
| QVQLVESGGGLVQAGGSLRLSCAASGRIFGVNAMGWYRQAPGKERELVAAIFSGGSTYYADSVKGRFTISRDNAKNTVYLQMNSLKPEDTAGYYCAARFARYDWSMYYWGQGTQVTVSS | low polyreactivity |
| QVQLEESGGGLVQAGGSRRLSCAASGSIFIANAMGWYRQAAGKEREFVAGISASGSSTYYADSVKVRFTISRDNAKNTVYLQMNILKPEDTAVNYCAAGSYYWGQGTQVTVSS | high polyreactivity |
| QVQLVESGGGLVQAGGSLRLICAASGSTFDYYAMGWYRQAPGKERELVAAISRRGGNTYYADSVKGRFTISRDNAKNTVYLQMNSLKQEDTAVYYCAAQTYKWYDWGHGTQVTVSS | high polyreactivity |
| QVQLVESGGGLVQSGGTLRLSWAASGFSFAGNAMGWYRLAPGKERELVAVISKRGGPTYYADSVKGRFTFSRDNAKNTVDLQMNSLKPEDTAVYYCAADSGGPGYAMDYWGQGTEVTVSS | high polyreactivity |
| QVQLVESGGGLVQAGGSLRLSCAASGITFTAYAMGWYRQAPGKERELVATINSTGITNYADSVKGRFTISRDNAKNTFYLQMNCLKAEDTAVSYCGADVLDISSYDGMDYWGKGTQVTVSS | low polyreactivity |
| QVQLVESGGGLVQAGGSLRLSCAASGRIFIVNAMGWYRQAPGKERELVAAIRTGGSNTYYADSVKGRFTISRDNAKNTVSLQMTSLKPEDTAVYYCNARSTRRINYWGQGTQVTVSS | high polyreactivity |
| QVQLVESGGGLVQAGGSHRLSCAASGRIFDDNALGWYCQAPGKERELVAAITGGGRTNYADSVKGRFTISRDNAKNTVYLQMNSLKPEDTAVSYCAAATYGWVIYIYDYWGQGTQVNVSS | low polyreactivity |
| QVQLVESGGGLVQAGGSLRLSCAASGFTFAWYTMGWYRQEPGKESELVAAISWSGGSTYYADSVKGRFTISPDNANKTVYLQMNILKPEDTAVYYCAVTTGLTRYEYWGQGTQVTVSS | high polyreactivity |
| QVQLVESGGGLDQAGGSLRLSCAASGLIFYAYTMGWYRQAPWKERELVAAINYSGGSTYYADSVKGRFTISRDNAKNTVYLQMNSLKPEDTAVYYCATRTGHWGQGTQVTVSS | low polyreactivity |
| QVQLVESGGGLVQAGGSLRLSCAASGLIFQYYAMGWYRQAPGKERELVAGITSGANTNYADSVKGRFTISRDNAKNTVYLQMNSLKPEDTAVYYCATYVSSPYSDIWFKDFDYWGQGTQVTVSS | low polyreactivity |
| QVQLVESGGGLVQAGGSLRLSCAASGRTFARNAMGWYRQAPGKERELVASIRWRGGSTYYADSVKGRFTISRDNAKNTVYLQMNRLKPEDTAVYYCATRSPYYVGRGYISYDYWGQGTQVTVSS | high polyreactivity |
| KVQIVESGGGLVQAGRSLRLSCAASGLTFFGNAMGWYRQAPGKERDLVATISSCGGTSYADSVKGRFTISRDNAKNTVYLQMNSLKPEDTEVYYCAADIVEEFDYWGLGTQVTVSS | low polyreactivity |

| Sequence | polyreactivity (PSR sort gate) |
| --- | --- |
| QVQLVESGGGLVKAGGSLRLSCAASGSIFLYYSMGWYRQAPGKERELVAAITGGGCTNYADSEKGRFTISRDHAKNNVYLLMNSLKPEDTSVYYWAADASGQFPYSYYNYDYDYWGQGTQVSVSS | low polyreactivity |
| QVQLVESGGGLVQAGGSLRLSCAASGSIFHPNAMGWYRQAPGKERELVAAITQSGATTYYADSVKGRFTISRDNAKNTVYLQMNSLKPEDTAVYYCAAEFTYGHHDYWGQGTQVTVSS | low polyreactivity |
| QVQLVESGGGLVQAGGSLRLSSAASGSTFKFYAMGWYRQAPGKERELVAAIRYSGGSTYYADSVKGRFTISRDNAKNTVYLQMNSLKPEDTAVYFCATEAQCVTYWFGYWGQGTQVTVSS | low polyreactivity |
| QVQLVDSGGGLVQAGCSLRLSCAASGRTFSNYAMGWYRQAPGKDRELVAAISWRGGSTYYADSVKGRFTISRDNAKNTVYLQMTSLKPEDTAVYYCAALPRYALGEDYWGQGTQVTVSS | high polyreactivity |
| QVQLVESGGGLVQAGGSLRLSCAASGSTFSGYVMGWYRQAPGKERELVAAINGGGGTTYYADSVKGRFTISRDNAKNTVYLQMNSLKPEDTAVYYCAKRSYVTYPPYDYWGQGTQVTVSS | high polyreactivity |
| QVQLVESGGGLVHAGGSLRLSCAASGFIFSSYAMGWYRPAPGKERELVAAITSRGGSTYYADSVKGRYTISRDNAKNTVYLQMNSLKPEDTAVYYCAADQGVPSTYDYWGQGTQVTVSS | low polyreactivity |
| QVQLVESGGGLVQAGGSLRLSCAASGSTFEGYAMGWYRQAPGKERELVAVISSGSITKYADSVKGRFTISRDNAKNTVYLQMNSLKQEDTAVYYCAADWTYVRFDYWGQGTQVTVSS | low polyreactivity |
| QVQLVESGGGLVQAGGSLRLSCAASGITFDYYAMGWYRQAPGKERELVASISSDSSTYYADSVKGRFTISRDNAKNTVYLQMNSLKPEDTAVYYCNAGDTTFPFYYWGQGTQVTVSS | low polyreactivity |
| QVQLVESGGGLVQAGGSLRLSCAASGSIFVGYTMGWYRQAPGKERELVAAITRRGGSTYYADSVKGRFTISRDNAKNTVYLQMNSLKPEDTAVYYCAAEVRRYVIVPYYYWGQGTQLTVSS | high polyreactivity |
| QVQLVESGGVLVQAGGSLRLSCAASGRIFDRNAMGWYRQAPGKERELVAAIDDSGGDTSYADSVKGRFTISRDNAKNTVYLQMNSLKPEDTAVYYCNAGYADFVTYPRYYYWGQGTQVTVSS | low polyreactivity |
| QVQLVESGGGLVQAGGSLRLSCAASGITFWLYAMGWYRQAPGKERELVAGIDNGGSTTYADSVKGRFTISRDNAKNTVYLQMNILKPEDTAVYYCAATFEWDPVYPYNGFIYDYWGQGTQVTVSS | high polyreactivity |
| QVQLVESGGGLVQAGGSLRLSCAASGGTLYTYAMGWYRQAPGKEWEFVAAITVSGGRTYYADSVKGRFTISRDNAKNTVYLLMNSLKPEDTAVYYCAARYWSWRSFKVDYWGQGTQVTVSS | high polyreactivity |
| QVQLVESGGGLVQAGGSLRLSCAASGFIFYRYAMGWYRQAPGKEREFVAAISRSGGSTYYADSVKGRFTISRDNAKNTVYLQKNSLKPEDTAVYYCNTYQHGYYVAEYDYWGQGTQVTVSS | high polyreactivity |
| QVQLVESGGGLVQAGGSLRLSCAASGSTFPDYAMGWSRPAPGKERELVATINDGDSTSYADSVKGRFTISRDNAKNTVYLQMNSLKTEDTAVYYCAADIRSNRLYDGGYWGQGTQVTVSS | low polyreactivity |
| QVQRVESGGGLVQAGGSLRLSCAASGSTIAKNAMGWYRQAPGKERELVAAISRGGNTYYADSVKGRFTISRDNAKNTVYLQMNSLKPEDTAVYYCAARYLYRSLKMDYWGQGTQVTVSS | high polyreactivity |
| QVQLVESGGGLVQAGGSLRLSCAASGRTSVRYAMGWYRQAPGKERELVAAISWSGGSTYYADSVKGRFTISRDNAKNTVYLQMNSLKPEDTAVYDCNAQHARGYYYWGQGTQVTVSS | low polyreactivity |
| QVQLVESAGGLVQAGGRLRLSCPPSGSTFAYNAMGWYRPEPGKERELVADITSGGSTKYADSVKVRFTISRDNAKNTVFLQMNSLKPEDTAVYYCAAVSVISGDFNYWGQGTEVTVSS | low polyreactivity |
| QVQLVESGGGLVQAGGSLRFSCAASGRTSRYYAMRWYRQAPGKERELVAGISTGGSTYYADSVKGRFTISRDNAKNTVYLQMKSLKPEDTAVYYCAAKYTRTNYYYWYYRMDFWGQGTQVTVSS | low polyreactivity |
| QVQLVESGGGLVQAGGSLRLSCAASGSTSSVYAMGWYRQAPGKEREFVASITRRTGITFYADSVKGRFTISRDNAKNTVYLQMNSLKPEDTAVYYCATRGGYPKGYGYLAFNYWGQGTQVTVSS | high polyreactivity |
| QVQLVESGGGLVQAGGSLRLSCAASGRTFQYYAMGWYRQAPGKERELGAAISGIGTSTSYADSVKGRFTISRDNAKNTVYLQMNSLKPEDTAVYYCAARLLVPGSPWYTNYYWGQGTQVTVSS | low polyreactivity |
